From publication PMC4771870 come the findings set out here.

The experiment has as its target mMBP-fused VERL-Fb (fragment of vitelline envelope receptor for lysin). As to the kind of experiment: crystal structure; crystals of the mMBP-VERL-Fb fusion, space group P2(1), 2.9 Å, molecular replacement with MBP; refinement ongoing.

Chain of mMBP-fused VERL-Fb (fragment of vitelline envelope receptor for lysin) (Q8WR62 25-3722): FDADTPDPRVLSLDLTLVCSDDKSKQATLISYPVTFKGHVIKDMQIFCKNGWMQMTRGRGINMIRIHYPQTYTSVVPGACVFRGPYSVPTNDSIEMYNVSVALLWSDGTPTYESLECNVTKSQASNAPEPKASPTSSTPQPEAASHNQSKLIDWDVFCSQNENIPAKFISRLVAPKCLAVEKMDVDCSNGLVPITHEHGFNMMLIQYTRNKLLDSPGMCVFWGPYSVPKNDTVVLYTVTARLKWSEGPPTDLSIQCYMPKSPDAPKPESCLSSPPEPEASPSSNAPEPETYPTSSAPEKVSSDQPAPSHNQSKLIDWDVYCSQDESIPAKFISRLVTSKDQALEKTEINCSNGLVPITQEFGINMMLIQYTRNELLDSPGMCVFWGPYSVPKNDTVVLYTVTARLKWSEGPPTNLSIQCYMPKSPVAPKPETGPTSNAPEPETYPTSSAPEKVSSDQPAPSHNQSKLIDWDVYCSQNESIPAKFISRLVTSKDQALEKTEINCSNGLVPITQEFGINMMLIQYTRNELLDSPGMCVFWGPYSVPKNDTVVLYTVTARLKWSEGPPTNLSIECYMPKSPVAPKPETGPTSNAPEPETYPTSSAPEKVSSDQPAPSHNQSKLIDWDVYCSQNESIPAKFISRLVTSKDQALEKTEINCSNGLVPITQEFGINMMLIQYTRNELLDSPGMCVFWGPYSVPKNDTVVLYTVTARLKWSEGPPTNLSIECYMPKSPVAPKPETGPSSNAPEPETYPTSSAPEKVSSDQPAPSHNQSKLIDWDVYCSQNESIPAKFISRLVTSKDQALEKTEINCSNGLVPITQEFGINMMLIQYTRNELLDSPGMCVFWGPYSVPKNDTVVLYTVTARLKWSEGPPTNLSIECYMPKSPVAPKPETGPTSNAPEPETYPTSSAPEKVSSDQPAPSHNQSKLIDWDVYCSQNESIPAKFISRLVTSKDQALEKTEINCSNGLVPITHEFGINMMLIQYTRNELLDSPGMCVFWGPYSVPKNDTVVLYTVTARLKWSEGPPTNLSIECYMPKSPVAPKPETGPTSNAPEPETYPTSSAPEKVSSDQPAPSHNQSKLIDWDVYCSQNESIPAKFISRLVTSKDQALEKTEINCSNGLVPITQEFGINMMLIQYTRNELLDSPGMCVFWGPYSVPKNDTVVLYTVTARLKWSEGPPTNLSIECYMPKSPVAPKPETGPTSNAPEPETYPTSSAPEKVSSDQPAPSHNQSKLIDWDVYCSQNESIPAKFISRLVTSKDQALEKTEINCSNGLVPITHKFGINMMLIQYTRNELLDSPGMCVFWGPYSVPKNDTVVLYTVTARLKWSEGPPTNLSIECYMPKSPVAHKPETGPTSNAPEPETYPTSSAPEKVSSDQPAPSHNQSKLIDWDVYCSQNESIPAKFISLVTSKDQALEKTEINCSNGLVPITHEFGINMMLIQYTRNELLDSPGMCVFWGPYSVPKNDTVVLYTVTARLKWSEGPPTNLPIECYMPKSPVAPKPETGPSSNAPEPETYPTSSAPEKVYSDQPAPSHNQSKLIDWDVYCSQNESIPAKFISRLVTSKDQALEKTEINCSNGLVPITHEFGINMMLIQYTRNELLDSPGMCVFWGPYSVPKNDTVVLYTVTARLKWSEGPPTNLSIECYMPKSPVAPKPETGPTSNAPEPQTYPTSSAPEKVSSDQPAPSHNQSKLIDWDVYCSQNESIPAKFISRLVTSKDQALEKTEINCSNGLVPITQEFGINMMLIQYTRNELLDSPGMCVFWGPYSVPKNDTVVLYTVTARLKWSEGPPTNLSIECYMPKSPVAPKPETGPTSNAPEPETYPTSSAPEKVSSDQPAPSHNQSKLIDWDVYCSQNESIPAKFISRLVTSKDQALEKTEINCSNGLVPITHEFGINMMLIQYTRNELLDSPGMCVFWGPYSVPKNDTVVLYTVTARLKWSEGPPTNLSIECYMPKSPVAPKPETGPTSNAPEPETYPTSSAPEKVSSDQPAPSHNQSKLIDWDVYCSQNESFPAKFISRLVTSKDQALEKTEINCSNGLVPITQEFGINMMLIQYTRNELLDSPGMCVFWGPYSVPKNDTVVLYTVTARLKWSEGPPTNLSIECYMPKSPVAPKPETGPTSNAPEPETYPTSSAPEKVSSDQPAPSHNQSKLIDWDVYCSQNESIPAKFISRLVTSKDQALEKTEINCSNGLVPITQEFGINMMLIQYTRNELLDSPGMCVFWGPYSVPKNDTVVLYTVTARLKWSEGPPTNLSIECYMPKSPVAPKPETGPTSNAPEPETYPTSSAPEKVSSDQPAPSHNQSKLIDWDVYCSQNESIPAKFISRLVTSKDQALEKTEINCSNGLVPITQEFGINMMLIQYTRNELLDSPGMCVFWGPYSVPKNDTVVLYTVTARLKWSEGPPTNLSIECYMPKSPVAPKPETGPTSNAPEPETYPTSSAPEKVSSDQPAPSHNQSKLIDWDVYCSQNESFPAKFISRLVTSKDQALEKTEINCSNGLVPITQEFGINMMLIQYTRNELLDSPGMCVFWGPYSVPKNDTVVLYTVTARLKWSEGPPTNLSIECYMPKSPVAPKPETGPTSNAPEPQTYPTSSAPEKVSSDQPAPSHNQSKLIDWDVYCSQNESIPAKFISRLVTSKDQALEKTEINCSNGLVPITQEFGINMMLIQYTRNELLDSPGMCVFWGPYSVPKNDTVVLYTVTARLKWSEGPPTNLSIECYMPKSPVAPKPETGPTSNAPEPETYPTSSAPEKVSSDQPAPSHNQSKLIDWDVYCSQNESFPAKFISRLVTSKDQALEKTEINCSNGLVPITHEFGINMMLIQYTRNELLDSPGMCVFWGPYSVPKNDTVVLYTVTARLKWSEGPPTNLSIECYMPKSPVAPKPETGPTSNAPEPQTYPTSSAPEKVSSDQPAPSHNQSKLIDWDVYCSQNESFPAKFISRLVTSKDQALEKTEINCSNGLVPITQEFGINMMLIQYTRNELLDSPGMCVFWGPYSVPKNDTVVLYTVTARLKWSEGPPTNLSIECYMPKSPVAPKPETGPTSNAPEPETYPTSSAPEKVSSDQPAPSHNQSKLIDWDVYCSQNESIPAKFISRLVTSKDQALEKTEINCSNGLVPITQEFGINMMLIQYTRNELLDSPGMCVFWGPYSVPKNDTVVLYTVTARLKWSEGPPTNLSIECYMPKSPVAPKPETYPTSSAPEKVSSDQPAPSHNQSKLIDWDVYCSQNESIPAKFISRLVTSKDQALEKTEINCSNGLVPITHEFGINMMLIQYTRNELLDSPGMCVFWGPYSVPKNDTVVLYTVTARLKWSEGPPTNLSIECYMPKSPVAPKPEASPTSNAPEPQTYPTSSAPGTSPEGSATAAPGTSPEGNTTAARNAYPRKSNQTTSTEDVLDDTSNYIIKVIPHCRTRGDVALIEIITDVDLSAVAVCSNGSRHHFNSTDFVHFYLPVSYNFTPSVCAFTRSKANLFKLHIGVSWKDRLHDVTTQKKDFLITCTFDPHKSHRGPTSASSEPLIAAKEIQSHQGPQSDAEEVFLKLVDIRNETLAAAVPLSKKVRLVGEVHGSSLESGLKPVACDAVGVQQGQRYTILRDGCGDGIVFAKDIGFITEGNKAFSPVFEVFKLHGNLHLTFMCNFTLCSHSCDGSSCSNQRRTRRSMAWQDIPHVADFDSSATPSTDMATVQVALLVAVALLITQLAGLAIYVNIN

In the case of “mMBP-fused VERL-Fb (fragment of vitelline envelope receptor for lysin) (domain or fragment)”, the stoichiometry N was determined as 2.

By stoichiometry N is commonly meant the number of molecules, sites or subunits per partner or assembly.
